Legend:
duligotuzumab meFab = experiment: single molecule localization microscopy
duligotuzumab memAb = experiment: single molecule localization microscopy

Q: meditope-Alexa Fluor 647 (peptide) was tested. Which stoichiometry N (duligotuzumab meFab) did it give?
A: Its stoichiometry N is 1.

Q: And the stoichiometry N (duligotuzumab memAb)?
A: The stoichiometry N was 2.

Reference: paper PMC6187371
